Assay [1] has as its target T1, human CD3 on T cells (human, UniProt P07766 23-207; P09693 23-182; P04234 22-171).
T1 construct: whole, on cells; also called human CD3 on Jurkat wt cells; CD3 on pan T-cells
Nature of the assay: flow cytometry on Jurkat cells, detection with anti-DARPin antibodies and anti-rabbit IgG Alexa Fluor 488, MFI [column T-cell binding]. The procedure:
(§1) The determination of CD3 binding was performed with human CD3 on Jurkat cells, and binding to hEGFR on cells with HCT116 tumor cells, using Flow Cytometer Attune Nxt. A titration of prodrug DARPin molecules was incubated with 200′000 cells per well (for both Jurkat and HCT116 cells) for 30 min at 4° C. After washing, CD3 binding of DARPin® molecule was detected by 1:1000-diluted anti-DARPin® Antibody-Mix (1 h incubation at 4° C.) with the corresponding secondary antibody anti-rabbit IgG Alexa Fluor 488 (30 min incubation at 4° C.), which was added after washing off excess anti-DARPin Antibodies. Cells were subsequently washed and stained for livedead (aqua, 1:1000, thermofisher) and resuspended in Cytofix fixation buffer (BD Biosciences). Median of mean fluorescence intensities of Alexa Fluor 488 binding on live cells were measured by Flow Cytometry and data was plotted using GraphPad Prism 8.
In general terms: A flow cytometer gives signals particle by particle.

The target of assay [2] is T2, human EGFR on tumor cells (human, UniProt P00533 25-1210).
T2 construct: whole, on cells; also called EGFR on A431 cells
In words: flow cytometry on HCT 116 tumor cells, detection with anti-DARPin antibodies. Here is the method:
as §1

Assay [3] deals with T3, recombinant human EGFR extracellular domain (human, UniProt P00533 25-645).
T3 construct: range 25-645; The range L25-S645 is stated for the ECD used in the selection; the SPR analyte is printed as hEGFR / recombinant human EGFR ECD; also called hEGFR; human EGFR ECD
In words: SPR (ProteOn XPR36); biotinylated DARPin captured on NLC chip, EGFR ECD as analyte; 1:1 Langmuir fit. The procedure:
(§2) All SPR measurements were performed using a ProteOn™ XPR36 Protein Interaction Array System (Bio-Rad). […] PBS pH7.4 containing 0.005% Tween-20 (Sigma) was used as flow buffer, which was additionally supplemented with 1 mg/ml BSA in the case of mEGFR target. A three-fold dilution series from 0.74 nM to 60 nM of hEGFR or mEGFR was injected for 180 s at a flow rate of 100 ul/min, and dissociation was recorded for 1800 s. The captured DARPin molecules were regenerated by a single pulse of 10 mM glycine-HCl, pH 2.5+1M NaCl. The data was double-referenced using the interspots (surface reference) and a blank injection (buffer reference). Each individual dilution-set was fitted to the Langmuir-1:1-model.

The target of assay [4] is T4, recombinant mouse EGFR extracellular domain (mouse, UniProt Q01279 25-647).
T4 construct: extracellular domain; Bought protein; also called mEGFR; mouse EGFR ECD
The description is as above. Here is the method:
as §2

The target in assay [5] is T1, human CD3 on T cells. In words: cell-based or functional assay.
Assay [6] concerns the target T1, human CD3 on T cells. Nature of the assay: flow cytometry on Jurkat cells, detection with anti-DARPin antibodies. Here is the method: as §1
Assay [7] has as its target T1, human CD3 on T cells. In words: cell-based or functional assay. The source holds these as a separate data set.
Assay [8] concerns the target T5, CD3-specific binding domain C7v127.
T5 construct: Used as analyte in SPR; also called hC22_88B02v127
T5 chain: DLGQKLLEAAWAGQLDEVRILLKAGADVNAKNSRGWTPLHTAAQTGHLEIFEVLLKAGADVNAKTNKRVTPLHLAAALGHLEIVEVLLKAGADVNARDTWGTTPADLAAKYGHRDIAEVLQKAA
In words: SPR (ProteOn XPR36), biotinylated Binder on NLC chip, CD3-specific binding domain as analyte, 25 C. From the text: (§3) An important feature of a binding moiety of the invention is its affinity towards a drug molecule. Relevant aspects include the off-rate of the binding moiety from the drug molecule and the resulting blocking half-life. Surface plasmon resonance (SPR) assays were used to determine the binding affinity of ankyrin repeat binding domains to the CD3 binding domain of a TCE drug molecule. AN SPR data was generated using a Bio-Rad ProteOn XPR36 instrument with PBS-T (0.005% Tween 20) as running buffer. A new neutravidin sensor chip (NLC) was air-initialized and conditioned according to Bio-Rad manual.

Assay [9] concerns the target T6, CD3-specific binding domain C7v122.
T6 construct: Used as analyte in SPR; also called hC22_88B02v122
T6 chain: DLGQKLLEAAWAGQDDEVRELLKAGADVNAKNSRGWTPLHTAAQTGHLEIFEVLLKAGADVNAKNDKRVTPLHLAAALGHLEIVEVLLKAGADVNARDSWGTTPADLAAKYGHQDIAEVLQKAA
In words: SPR (ProteOn XPR36), biotinylated Binder captured on NLC neutravidin chip as ligand, CD3-specific binding domain as analyte, PBS-T, 25 C; KD from kon/koff.
Source text: as §3

Assay [10] deals with T7, CD3-specific binding domain C7v118.
T7 construct: Used as analyte in SPR; also called hC22_88B02v118
T7 chain: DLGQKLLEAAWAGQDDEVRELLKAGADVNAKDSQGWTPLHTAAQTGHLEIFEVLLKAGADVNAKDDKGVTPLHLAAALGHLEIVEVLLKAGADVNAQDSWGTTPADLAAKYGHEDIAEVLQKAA
The assay is described as above.
Source text: as §3

The target of assay [11] is T8, CD3-specific binding domain C7v14.
T8 construct: Used as analyte in SPR; also called hC22_88B02v14
T8 chain: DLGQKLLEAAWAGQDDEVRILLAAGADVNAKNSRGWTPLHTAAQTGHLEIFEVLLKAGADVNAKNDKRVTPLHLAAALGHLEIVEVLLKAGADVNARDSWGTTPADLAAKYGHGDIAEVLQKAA
The assay is described as above.
Source text: as §3

The target in assay [12] is T9, CD3-specific binding domain C7v119.
T9 construct: Used as analyte in SPR; also called hC22_88B02v119
T9 chain: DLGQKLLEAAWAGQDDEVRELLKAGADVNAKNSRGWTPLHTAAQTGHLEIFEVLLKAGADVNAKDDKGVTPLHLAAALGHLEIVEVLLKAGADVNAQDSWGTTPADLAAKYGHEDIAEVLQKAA
Described as above.
Source text: as §3

For assay [13], the target named is T6, CD3-specific binding domain C7v122. Nature of the assay: SPR (ProteOn XPR36), biotinylated Binder captured on NLC neutravidin chip as ligand, CD3-specific binding domain as analyte, PBS-T, 25 C; KD by equilibrium fitting.
Source text: as §3

In assay [14] the target is T7, CD3-specific binding domain C7v118. The description is as above.
Source text: as §3

The target of assay [15] is T8, CD3-specific binding domain C7v14. The assay is described as above.
Source text: as §3

Assay [16] addresses T9, CD3-specific binding domain C7v119. The assay is described as above.
Source text: as §3

T1 sequence (P07766 23-207, chain 1 of 3): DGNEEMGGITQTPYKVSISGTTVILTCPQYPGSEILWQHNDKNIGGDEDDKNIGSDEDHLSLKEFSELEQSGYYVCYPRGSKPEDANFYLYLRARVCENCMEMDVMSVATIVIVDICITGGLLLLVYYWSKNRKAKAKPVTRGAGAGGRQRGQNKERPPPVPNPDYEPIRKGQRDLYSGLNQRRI
T1 sequence (P09693 23-182, chain 2 of 3): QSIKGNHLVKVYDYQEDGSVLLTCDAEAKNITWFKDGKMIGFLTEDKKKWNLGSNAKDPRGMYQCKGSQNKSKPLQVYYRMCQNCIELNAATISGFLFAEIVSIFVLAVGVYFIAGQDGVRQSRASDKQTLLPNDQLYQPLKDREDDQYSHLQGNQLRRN
T1 sequence (P04234 22-171, chain 3 of 3): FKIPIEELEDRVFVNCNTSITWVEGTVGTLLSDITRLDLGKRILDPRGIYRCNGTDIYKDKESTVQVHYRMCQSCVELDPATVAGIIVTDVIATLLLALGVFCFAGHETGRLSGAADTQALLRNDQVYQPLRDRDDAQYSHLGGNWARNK

B1: CD3-PDD NCL EGFR-C7v122-[NCL1]-06E05v07-6His (designed binder)
chain: MGSDLGYKLLRAAFHGQDDEVRILLAAGADVNAKDLIGQTPLHNAAWVGHLEIVEVLLKAGADVNAKDYYGNTPLHLAAHDGHLEIVEVLLKAGADVNAQDTWGETPADLATNAGHEDIAEVLQKAAGSPTPTPTTPTPTPTTPTPTPTGSDLGQKLLEAAWAGQDDEVRELLKAGADVNAKNSRGWTPLHTAAQTGHLEIFEVLLKAGADVNAKNDKRVTPLHLAAALGHLEIVEVLLKAGADVNARDSWGTTPADLAAKYGHQDIAEVLQKAASGPTPTPTTPTPTPTTPTPTPTGSDLGKKLLQAARAGQLDEVRELLKAGADVNAKDAKGLTPLHLAAYHGHLEIVEVLLKAGADVNAKDVYGWTPLHIAAASGHLEIVEVLLKAGADVNAKDWLGWTPLHLAASAGHLEIVEVLLKAGADVNAQDKSGKTPADLAARAGHQDIAEVLQKAAGSHHHHHH
With B1, in the assay with human CD3 on T cells [1], the binding result is reported as “no binding”. In assay [2], this molecule yielded an EC50 of 593 pM.

B2: anti-EGFR DARPin (biotinylated, monovalent EGFR-specific ankyrin repeat domain) (designed binder)
chain: MGSDLGYKLLRAAFHGQDDEVRILLAAGADVNAKDLIGQTPLHNAAWVGHLEIVEVLLKAGADVNAKDYYGNTPLHLAAHDGHLEIVEVLLKAGADVNAQDTWGETPADLATNAGHEDIAEVLQKAA
modifications: biotinylated (site not stated)
As for B2, in [3], the Kd came to 470 pM, the off-rate (koff) was determined as 0.0002 s⁻¹ and the kon was 420000 M⁻¹ s⁻¹. In assay [4], the Kd turned out to be 490 pM, the koff is 0.00032 s⁻¹ and the association rate constant (kon) was found to be 640000 M⁻¹ s⁻¹.

B3: Active TCE EGFR-C7v119-6His (designed binder)
chain: MGSDLGYKLLRAAFHGQDDEVRILLAAGADVNAKDLIGQTPLHNAAWVGHLEIVEVLLKAGADVNAKDYYGNTPLHLAAHDGHLEIVEVLLKAGADVNAQDTWGETPADLATNAGHEDIAEVLQKAAGSPTPTPTTPTPTPTTPTPTPTGSDLGQKLLEAAWAGQDDEVRELLKAGADVNAKNSRGWTPLHTAAQTGHLEIFEVLLKAGADVNAKDDKGVTPLHLAAALGHLEIVEVLLKAGADVNAQDSWGTTPADLAAKYGHEDIAEVLQKAAGSHHHHHH
notes: Bispecific ankyrin repeat protein; also called active TCE (C7v119 comprising construct); anti-EGFR x anti-CD3
For B3, the “tumor cell killing EC50 (LDH release), HCT 116 tumor cells and pan T-cells” value with human CD3 on T cells [5] was 7.4 pM. Also, the EC50 in [2] was found to be 427 pM. In addition, in the assay with human CD3 on T cells [6], the EC50 is > 10000 pM. Besides, in the assay with human CD3 on T cells [7], the “T-cell activation EC50, HCT 116 tumor cells and pan T-cells” value came out at 10.8 pM; the “tumor cell killing EC50, HCT 116 tumor cells and pan T-cells” value turned out to be 18.5 pM.

B4: Active TCE EGFR-C7v122-6His (designed binder)
chain: MGSDLGYKLLRAAFHGQDDEVRILLAAGADVNAKDLIGQTPLHNAAWVGHLEIVEVLLKAGADVNAKDYYGNTPLHLAAHDGHLEIVEVLLKAGADVNAQDTWGETPADLATNAGHEDIAEVLQKAAGSPTPTPTTPTPTPTTPTPTPTGSDLGQKLLEAAWAGQDDEVRELLKAGADVNAKNSRGWTPLHTAAQTGHLEIFEVLLKAGADVNAKNDKRVTPLHLAAALGHLEIVEVLLKAGADVNARDSWGTTPADLAAKYGHQDIAEVLQKAAGSHHHHHH
notes: Bispecific ankyrin repeat protein; also called active TCE (C7v122 comprising construct); anti-EGFR x anti-CD3
Consider B4, for which the “tumor cell killing EC50 (LDH release), HCT 116 tumor cells and pan T-cells” value with human CD3 on T cells [5] was 2.2 pM. In addition, the EC50 in [2] came to 518 pM; with human CD3 on T cells [6], 7900 pM. Moreover, the “T-cell activation EC50, HCT 116 tumor cells and pan T-cells” value in the assay with human CD3 on T cells [7] amounted to 6.8 pM. Further, the “tumor cell killing EC50, HCT 116 tumor cells and pan T-cells” value in the assay with human CD3 on T cells [7] was determined as 7.2 pM.

B5: Binder #2 (designed binder)
chain: MRGSHHHHHHGSDLGKKLLQAARAGQLDEVRELLKAGADVNAKDAKGLTPLHLAAYHGHLEIVEVLLKAGADVNAKDVAGWTPLHIAAASGHLEIVEVLLKAGADVNAKDWLGWTPLHLAASHGHLEIVEVLLKAGADVNAQDKSGKTPADLAARAGHQDIAEVLQKAA
modifications: biotinylated for SPR (site not stated)
notes: N-terminal His-tag; also called 06E05v03
Take B5: the binding result in assay [8] is “binds”. For the same molecule, the dissociation constant (Kd) turned out to be 92400 pM in [9], 126000 pM in assay [10], 114000 pM in [11] and 141000 pM in assay [12].

B6: Binder #4 (designed binder)
chain: MRGSHHHHHHGSDLGKKLLQAARAGQLDEVRELLKAGADVNAKDAKGLTPLHLAAYHGHLEIVEVLLKAGADVNAKDVYGWTPLHIAAASGHLEIVEVLLKAGADVNAKDWLGWTPLHLAASAGHLEIVEVLLKAGADVNAQDKSGKTPADLAARAGHQDIAEVLQKAA
modifications: biotinylated for SPR (site not stated)
notes: N-terminal His-tag; also called 06E05v07
With B6, in [8], the binding result is on record as “binds”. The Kd in assay [13] stood at 27200 pM; in assay [14], 41400 pM; in assay [15] it was 35300 pM; in [16] it was 37500 pM.

For orientation: EC50 means the midpoint of the concentration-response curve. For orientation: Kd means the constant that tells how readily two partners part at equilibrium. In general, koff refers to a measure of how fast the partners let go of each other. Broadly, the kon is the second-order rate constant of association.

Source of the values: US20240156980A1 (Molecular Partners, published 2024).
